The text below walks through data of article PMC3872205 (Journal of molecular biology, 2013).

Holding throughout (test): ITC
On the technique in general: In ITC the heat of successive injections is recorded.

Assay [1] addresses Rb^380-816∆PL/S780A with S807 and S811 substituted for alanine, phosphorylated (UniProt P06400).
The target of assay [2] is Rb^380-794∆PL/S780A, phosphorylated (UniProt P06400).
For assay [3], the target named is Rb^380-816∆PL/S780A with S788 and S795 substituted to alanine, phosphorylated (UniProt P06400).
Assay [4] deals with Rb^380-816∆PL/S780A, unphosphorylated (UniProt P06400).
The target of assay [5] is Rb^380-816∆PL/S780A, phosphorylated (UniProt P06400).
Assay [6] has as its target Rb^380-800∆PL/S780A, unphosphorylated (UniProt P06400).
For assay [7], the target named is Rb^380-800∆PL/S780A, phosphorylated (UniProt P06400).
Assay [8] addresses Rb^380-816∆PL/S780A with S788 and S795 substituted to alanine, unphosphorylated (UniProt P06400).
Assay [9] concerns the target Rb^380-794∆PL/S780A, unphosphorylated (UniProt P06400).
Assay [10] addresses Rb^53-800∆NL/∆PL/S780A, phosphorylated (UniProt P06400).
Assay [11] concerns the target Rb construct phosphorylated at Rb^IDL (T356/T373) (construct of Table 2).
Assay [12] concerns the target Rb construct phosphorylated at RbC^N (S788/S795) (construct of Table 2).
Assay [13] deals with Rb construct phosphorylated at Rb^PL (S608/S612) (construct of Table 2).
Assay [14] concerns the target T1, Rb^380-816/780A, unphosphorylated (UniProt P06400 380-816, 780A).
T1 sequence (looked up): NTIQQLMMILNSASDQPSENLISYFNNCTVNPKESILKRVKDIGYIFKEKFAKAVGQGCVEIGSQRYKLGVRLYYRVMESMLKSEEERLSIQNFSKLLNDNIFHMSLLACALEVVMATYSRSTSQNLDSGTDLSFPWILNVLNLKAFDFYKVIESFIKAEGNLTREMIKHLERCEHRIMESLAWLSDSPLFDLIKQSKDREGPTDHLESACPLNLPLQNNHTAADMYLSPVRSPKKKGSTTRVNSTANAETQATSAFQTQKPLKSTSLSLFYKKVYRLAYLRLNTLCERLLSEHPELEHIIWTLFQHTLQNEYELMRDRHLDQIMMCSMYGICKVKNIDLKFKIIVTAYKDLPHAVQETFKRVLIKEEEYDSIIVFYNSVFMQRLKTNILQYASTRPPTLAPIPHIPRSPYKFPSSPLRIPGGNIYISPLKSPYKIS

Assay [15] deals with Rb^53-800∆NL/∆PL/S780A, unphosphorylated (UniProt P06400 53-800, S780A).
Assay [16] concerns the target Rb^53-800∆NL/∆PL/S780A, phosphorylated (UniProt P06400 53-800, S780A, phosphorylated with Cdk; Rb^IDL (T356/T373) and RbC^N (S788/S795) sites).

As a reminder, the Kd is the constant that tells how readily two partners part at equilibrium. A low value points to tighter binding. On to “E2F1 transactivation domain (E2F1^TD, residues 372-437) (from UniProt Q01094 372-437) (domain or fragment)”, for which the Kd in [1] was found to be 510 nM; in assay [2], 270 nM; in [3] it was 130 nM; in assay [4], 70 nM; in assay [5], 470 nM; in [6], 50 nM. Also, the results for the Kd in [7], in [8] and in assay [9] were 510 nM, 90 nM and 120 nM, respectively.
In turn, “E2F2 transactivation domain (E2F2^TD) (domain or fragment)” had a fold reduction in binding affinity against the unphosphorylated construct in [10] of 22 fold. In [11], this molecule yielded a fold inhibition of binding against the unphosphorylated construct of 2 fold.
For the molecule “E2F3 transactivation domain (E2F3^TD) (domain or fragment)”, the fold rise of Kd against the unphosphorylated construct in assay [12] was 10 fold; in [13], 9 fold. For the same molecule, in assay [11], the fold inhibition of binding against the unphosphorylated construct worked out at 25 fold.

B1: E2F1 transactivation domain (E2F1^TD, residues 372-437) (domain or fragment, UniProt Q01094 372-437, looked up)
chain: DRLSPLVAADSLLEHVREDFSGLLPEEFISLSPPHEALDYHFGLEEGEGIRDLFDCDFGDLTPLDF
B1: the Kd in assay [14] turned out to be 70 nM; in [15], 130 nM; in assay [16], 30000 nM.
